In general, stoichiometry N refers to the number of molecules, sites or subunits per partner or assembly.

Test [1] deals with srTRPM2–E1114A (Salpingoeca rosetta). The experiment in a line: cryo-EM structure; purified protein in GDN or nanodisc with CaCl2–ADPR (1:1 mM), MgCl2–AMP–R5P (10:1:1 mM) or MgCl2–ADPR (10:1 mM; 5 s, 10 s or 4 min); fully ligand-bound states; NUDT9-H layer tetramerised via the buckle helix.
For test [2], the target named is T1, srTRPM2 (Salpingoeca rosetta, UniProt F2UB89, R275A).
T1 construct: gene PTSG_05449; full length; N-terminal TwinStrepII-His8-eGFP tag (thrombin-cleaved for enzyme assays and nanodiscs); expressed in tsA201 cells; homotetramer, GDN detergent or nanodisc
The test is described as follows: inside-out patch clamp, tsA201 cells, +[…] mV. In kind it is biochemical. The conditions noted are these: Ca2+ with ADPR; MHR1/2 site; no activation; reduced expression level. (In general: In patch-clamp work, channel activity is measured electrically.)

For test [3], the target named is T2, srTRPM2 (Salpingoeca rosetta, UniProt F2UB89).
T2 construct: gene PTSG_05449; full length; N-terminal TwinStrepII-His8-eGFP tag (thrombin-cleaved for enzyme assays and nanodiscs); expressed in tsA201 cells; homotetramer, GDN detergent or nanodisc
The experiment in a line: HPLC fluorescence of etheno-AMP, Michaelis-Menten fit. In kind it is biochemical. The conditions noted are these: 10 mM MgCl2 final, TBS-GDN, 25 °C; all buckle helix residues mutated to alanine, positions not given.

Test [4] addresses T3, srNUDT9-H (isolated domain) (Salpingoeca rosetta, UniProt F2UB89).
T3 construct: gene PTSG_05449; TwinStrepII-His8-eGFP tag, TEV-cleaved; expressed in tsA201 cells; monomeric
Described as above. In kind it is biochemical. The conditions noted are these: 10 mM MgCl2 final, TBS-GDN, 25 °C.

In test [5] the target is T4, srTRPM2 (Salpingoeca rosetta, UniProt F2UB89, F268A).
T4 construct: gene PTSG_05449; full length; N-terminal TwinStrepII-His8-eGFP tag (thrombin-cleaved for enzyme assays and nanodiscs); expressed in tsA201 cells; homotetramer, GDN detergent or nanodisc
The test is described as follows: inside-out patch clamp, tsA201 cells, +[…] mV. It is filed as biochemical. The conditions noted are these: Ca2+ with ADPR; MHR1/2 site; no activation.

The target of test [6] is T2, srTRPM2. The experiment in a line: HPLC fluorescence of etheno-AMP, Michaelis-Menten fit. The conditions noted are these: 10 mM MgCl2 final, TBS-GDN, 25 °C; buckle helix truncated, borders not given. It is filed as biochemical.
Test [7] has as its target Salpingoeca rosetta TRPM2 chanzyme, wild type, full length (Salpingoeca rosetta). The experiment in a line: cryo-EM structure; purified protein with EDTA (1 mM), CaCl2 (1 mM), MgCl2 (10 mM) or EDTA–ADPR (1:1 mM), 30 min; apo or partially ligand-bound states; C4 symmetry; NUDT9-H domains flexible, not tetramerised.
Test [8] has the same target. The test is described as follows: cryo-EM structure; purified protein in GDN or nanodisc with CaCl2–ADPR (1:1 mM), MgCl2–AMP–R5P (10:1:1 mM) or MgCl2–ADPR (10:1 mM; 5 s, 10 s or 4 min); fully ligand-bound states; NUDT9-H layer tetramerised via the buckle helix.
Test [9] has as its target srTRPM2–ΔNUDT9-H (Salpingoeca rosetta) (UniProt F2UB89). The test is described as follows: cryo-EM structure; purified protein with EDTA (1 mM), CaCl2 (1 mM), MgCl2 (10 mM) or EDTA–ADPR (1:1 mM), 30 min; apo or partially ligand-bound states; C4 symmetry; NUDT9-H domains flexible, not tetramerised.
The target is the same in test [10]. The test is described as follows: cryo-EM structure; purified protein in GDN or nanodisc with CaCl2–ADPR (1:1 mM), MgCl2–AMP–R5P (10:1:1 mM) or MgCl2–ADPR (10:1 mM; 5 s, 10 s or 4 min); fully ligand-bound states; NUDT9-H layer tetramerised via the buckle helix.

T2 sequence (F2UB89 entry or part of it): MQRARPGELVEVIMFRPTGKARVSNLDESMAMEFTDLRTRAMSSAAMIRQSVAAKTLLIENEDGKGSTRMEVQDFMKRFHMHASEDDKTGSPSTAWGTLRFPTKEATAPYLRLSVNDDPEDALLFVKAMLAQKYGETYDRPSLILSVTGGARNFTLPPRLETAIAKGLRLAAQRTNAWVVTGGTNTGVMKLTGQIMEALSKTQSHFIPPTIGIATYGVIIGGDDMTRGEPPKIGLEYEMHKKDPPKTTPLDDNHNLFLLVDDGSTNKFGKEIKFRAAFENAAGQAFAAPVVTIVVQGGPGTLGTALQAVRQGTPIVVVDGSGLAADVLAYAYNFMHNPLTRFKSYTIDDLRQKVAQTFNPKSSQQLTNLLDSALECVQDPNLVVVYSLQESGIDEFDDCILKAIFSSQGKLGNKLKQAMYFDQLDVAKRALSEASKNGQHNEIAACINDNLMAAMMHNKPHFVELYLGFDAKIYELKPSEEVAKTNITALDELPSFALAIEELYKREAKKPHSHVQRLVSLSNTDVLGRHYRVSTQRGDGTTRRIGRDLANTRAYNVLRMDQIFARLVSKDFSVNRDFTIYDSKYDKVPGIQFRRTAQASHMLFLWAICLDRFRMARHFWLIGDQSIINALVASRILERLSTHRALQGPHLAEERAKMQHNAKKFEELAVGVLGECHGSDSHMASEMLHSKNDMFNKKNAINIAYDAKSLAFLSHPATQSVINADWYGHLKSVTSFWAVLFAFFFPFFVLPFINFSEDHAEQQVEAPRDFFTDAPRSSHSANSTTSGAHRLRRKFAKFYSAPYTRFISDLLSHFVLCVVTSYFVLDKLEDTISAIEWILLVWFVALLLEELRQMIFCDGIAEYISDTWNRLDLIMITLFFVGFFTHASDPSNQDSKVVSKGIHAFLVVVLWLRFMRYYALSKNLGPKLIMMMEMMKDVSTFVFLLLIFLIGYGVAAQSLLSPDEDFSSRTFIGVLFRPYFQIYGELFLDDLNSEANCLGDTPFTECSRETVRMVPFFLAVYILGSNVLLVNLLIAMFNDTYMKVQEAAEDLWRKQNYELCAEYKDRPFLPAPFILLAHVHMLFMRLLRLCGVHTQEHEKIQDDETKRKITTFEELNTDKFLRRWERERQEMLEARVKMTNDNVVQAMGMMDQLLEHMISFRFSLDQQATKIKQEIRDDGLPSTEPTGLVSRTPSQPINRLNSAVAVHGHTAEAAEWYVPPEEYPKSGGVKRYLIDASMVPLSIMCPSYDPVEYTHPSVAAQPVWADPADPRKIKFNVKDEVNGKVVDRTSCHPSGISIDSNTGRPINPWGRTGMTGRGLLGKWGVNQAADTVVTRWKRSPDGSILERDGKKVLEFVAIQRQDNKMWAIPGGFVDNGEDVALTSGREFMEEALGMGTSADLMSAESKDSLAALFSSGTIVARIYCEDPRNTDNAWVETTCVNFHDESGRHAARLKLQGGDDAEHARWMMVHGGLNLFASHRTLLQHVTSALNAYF
T3 sequence (F2UB89 entry or part of it): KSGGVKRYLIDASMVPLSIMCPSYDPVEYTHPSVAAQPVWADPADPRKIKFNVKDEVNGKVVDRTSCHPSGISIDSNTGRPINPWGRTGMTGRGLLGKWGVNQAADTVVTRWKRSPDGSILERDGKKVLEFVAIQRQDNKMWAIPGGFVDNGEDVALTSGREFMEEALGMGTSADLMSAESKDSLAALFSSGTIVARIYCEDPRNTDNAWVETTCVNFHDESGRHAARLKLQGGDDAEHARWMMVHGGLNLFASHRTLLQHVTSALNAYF
T1 sequence (F2UB89 entry or part of it R275A): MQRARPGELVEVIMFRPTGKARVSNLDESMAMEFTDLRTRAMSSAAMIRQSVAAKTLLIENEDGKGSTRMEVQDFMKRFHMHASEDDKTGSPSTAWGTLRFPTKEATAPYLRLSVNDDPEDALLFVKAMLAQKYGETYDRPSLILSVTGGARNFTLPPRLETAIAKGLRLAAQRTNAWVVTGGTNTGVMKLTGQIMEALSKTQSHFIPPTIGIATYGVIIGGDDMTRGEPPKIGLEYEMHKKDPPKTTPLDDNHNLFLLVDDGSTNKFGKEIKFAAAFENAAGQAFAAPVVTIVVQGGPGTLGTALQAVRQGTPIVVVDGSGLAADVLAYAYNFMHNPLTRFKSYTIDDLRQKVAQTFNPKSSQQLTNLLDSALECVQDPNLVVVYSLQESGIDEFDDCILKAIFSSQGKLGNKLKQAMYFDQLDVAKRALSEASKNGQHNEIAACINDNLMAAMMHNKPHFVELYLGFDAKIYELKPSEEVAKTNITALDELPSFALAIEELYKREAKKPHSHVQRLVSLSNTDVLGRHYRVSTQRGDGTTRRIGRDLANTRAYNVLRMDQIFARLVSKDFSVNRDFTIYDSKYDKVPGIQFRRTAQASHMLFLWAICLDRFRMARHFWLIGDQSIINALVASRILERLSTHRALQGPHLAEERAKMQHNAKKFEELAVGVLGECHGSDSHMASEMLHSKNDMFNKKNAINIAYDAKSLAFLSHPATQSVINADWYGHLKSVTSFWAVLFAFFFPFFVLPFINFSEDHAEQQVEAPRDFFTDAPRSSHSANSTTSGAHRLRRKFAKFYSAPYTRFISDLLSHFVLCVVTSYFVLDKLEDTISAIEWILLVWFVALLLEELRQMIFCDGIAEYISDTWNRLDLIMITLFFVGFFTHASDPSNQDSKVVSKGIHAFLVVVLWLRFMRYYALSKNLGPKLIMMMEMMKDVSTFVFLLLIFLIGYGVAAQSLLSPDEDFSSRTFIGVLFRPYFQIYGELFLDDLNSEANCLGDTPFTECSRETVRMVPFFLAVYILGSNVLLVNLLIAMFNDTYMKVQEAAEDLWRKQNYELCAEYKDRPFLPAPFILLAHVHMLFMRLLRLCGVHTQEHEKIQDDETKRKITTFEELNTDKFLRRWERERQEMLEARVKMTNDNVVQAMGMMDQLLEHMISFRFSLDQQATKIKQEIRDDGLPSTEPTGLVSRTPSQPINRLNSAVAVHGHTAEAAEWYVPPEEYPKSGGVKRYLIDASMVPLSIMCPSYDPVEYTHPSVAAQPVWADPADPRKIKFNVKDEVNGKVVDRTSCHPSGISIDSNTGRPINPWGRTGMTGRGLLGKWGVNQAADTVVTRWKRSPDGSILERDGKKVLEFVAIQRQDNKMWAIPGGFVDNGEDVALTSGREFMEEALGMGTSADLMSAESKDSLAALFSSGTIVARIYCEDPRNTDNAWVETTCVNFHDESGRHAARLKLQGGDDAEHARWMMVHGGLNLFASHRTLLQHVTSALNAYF
T4 sequence (F2UB89 entry or part of it F268A): as the sequence (F2UB89 entry or part of it R275A) above, with F268A, A275R counted along it

As for srTRPM2–E1114A (natural protein), in test [1], the stoichiometry N amounted to 4.
Take `Nc1ncnc2c1ncn2[C@@H]1O[C@H](COP(=O)(O)OP(=O)(O)OC[C@H]2OC(O)[C@H](O)[C@@H]2O)[C@@H](O)[C@H]1O` (stereo partly shown) [ADPR]: the “inside-out patch clamp, tsA201 cells, +60 mV” value in test [2] and in [5] was “Replacement of either of these residues with alanine rendered srTRPM2 insensitive to ADPR” each time. Further, the values for the KM entry in [3], in [4] and in test [6] were “srTRPM2 with the buckle helix residues replaced by alanine (BH2A)”, “representing the rate of ADPR hydrolysis by the isolated srNUDT9-H domain” and “srTRPM2 lacking the buckle helix (ΔBH)”, respectively.
In the case of “Salpingoeca rosetta TRPM2 chanzyme, wild type, full length (natural protein)”, the stoichiometry N in test [7] and in [8] was 4 throughout.
As for “srTRPM2–ΔNUDT9-H (from UniProt F2UB89 1-1214) (domain or fragment)”, the stoichiometry N in [9] and in test [10] was 4 throughout.

(Values after article PMC11479946, “Coupling enzymatic activity and gating in an ancient TRPM chanzyme and its molecular evolution” (Nature Structural & Molecular Biology, 2024).)
